In patent US20160145352A1 (INSTITUT NATIONAL DE LA RECHERCHE AGRONOMIQUE, published 2016):

Experiments:
[1] = target: H3 histone (HPLC-purified fraction) (human, UniProt P68431 2-136); test: immunoblot on HPLC-purified histones, VHH-HA plus anti-HA, HRP/ECL
Description: (§1) After blocking in TBS-T (Tris buffered saline, 0.1% Tween® 20), 5% skimmed milk, the membrane is incubated for 1 h in a dilution of the VHH-HA polypeptide (5 μg/ml) combined with an anti-HA antibody (HA-11 mouse monoclonal 16B12 from Covance) diluted to 1 μg/ml in TBS-T, 5% skimmed milk. The membranes are also probed with the anti-H2AX (Epitomics clone EPR895) and anti-γH2AX (Millipore) monoclonal antibodies. After 3 washes in TBS-T, the blot is incubated with the anti-mouse secondary antibody coupled to horseradish peroxidase (HRP) (Cell Signaling), then washed 3 times for 10 min. Visualization is carried out with an ECL substrate (Enhanced Chemiluminescence West Dura Thermo scientific). The chemiluminescence photon emission is captured by a camera (G-Box Syngene).
(§2) To this effect, the proteins of the fractions thus obtained, in particular of the fractions containing H2A, H2B and H3, and also a mixture of the H2A and H2B fractions, are separated by electrophoresis in a denaturing polyacrylamide gel (NuPage® Bis Tris, Life Technologies), then transferred onto a nitrocellulose membrane. The visualization is carried out according to the protocol described above.

[2] = target: H2B histone in the monomeric state (HPLC-purified fraction) (human, UniProt P62807 2-126); test: as above
Description: as §1, §2

[3] = target: H4 histone (in total histones acid-extracted from HT1080 human cells) (human, UniProt P62805 2-103); test: immunoblot on acid-extracted total histones of HT1080 cells, overlaid on Ponceau red staining

Measured: binding result

B1: S2-HA polypeptide (VHH S2 fused to the HA tag) (VHH)
VHH: QVQLQASGGGLVQAGDSLRLSCAAAGRSFSSYAMGWFRQAPGKEREFVAAISRSRGVTYADSVKGRFTISKDNVKNMAYLQMNSLKPEDTGVYYCAATSSGSTRQLSTGRSNYWGQGTQVTVS
notes: Secreted into E. coli culture medium from pHEN4-VHH; it calls it the VHH domain; also called VHH-HA; not shown: HA tag from the pHEN4 vector
no binding (tested: 5 µg/ml): all assays above

B2: C76-HA polypeptide (VHH C76 fused to the HA tag) (VHH)
VHH: QVQLQASGGGLVQAGGSLRLSCAVSGGTLSSYTMGWFRQAPGKEREFVSALSRVGGKSDYADSVKGRFTISRNAKNTVYLQMNSLKPEDTAVYYCAAGGYSRRWSAYNYWGQGTQVTVS
notes: Secreted into E. coli culture medium from pHEN4-VHH; also called C75-HA (as printed in Experiment 2); VHH-HA; not shown: HA tag from the pHEN4 vector
no binding (tested: 5 µg/ml): all assays above

B3: C25-HA polypeptide (VHH C25 fused to the HA tag) (VHH)
VHH: QVQLQASGGGLVQAGESLTLSCDASGRTFSIGAMGWFRQAPGKEREFLAAINWNGGYTSYADVASGRFTISRNAKNTVYLQMNSLQPEDTAVYYCAAKYGGSARSRTYDYWGQGTQVTVS
notes: Secreted into E. coli culture medium from pHEN4-VHH; also called VHH-HA; not shown: HA tag from the pHEN4 vector
no binding (tested: 5 µg/ml): all assays above
